# Results as given in patent US20210107971A1 (UCB, published 2021).
# No end group written: not given here.
# T1: biotinylated peptide corresponding to residues 117 to 126 of human alpha synuclein (peptide PVDPDNEAYE) (human, also: biotinylated, site not given here)
# T1 construct: Captured on streptavidin plates for ELISA
# T1 peptide: PVDPDNEAYE
# B1: monoclonal 6470 rabbit IgG1 (antibody, V domains shown)
# VH: QSVEESGGRLVTPGTPLTLTCTVSGIDLSSHDMYWVRQAPGKGLEYIGAIYASGSTYYASWAKGRFTISKTSTTVDLKMTSLTTEDTATYFCARIHYGNSGGLWGQGTLVTVSS
# VL: AIVMTQTPSSKSVAVGDTVTINCQASQSVYKNNYLAWFQQKPGQPPKQLIYGASTLASGVPSRFKGSGSGTQFTLTISDVVCDDAATYYCAGYKGGRNDGFAFGGGTEVVVKR
# notes: Recombinant rabbit IgG1/kappa expressed in Expi293 cells
# What was measured:
# [1] = biological target: T1, biotinylated peptide corresponding to …; experiment: streptavidin-capture ELISA on biotinylated peptide PVDPDNEAYE, HRP anti-rabbit IgG Fc, TMB, OD 630 nm
# Experimental: Purified antibodies were then subject to further screening by ELISA. […] Plates were blocked with 1% w/v PEG/PBS and then incubated with several dilutions of purified transient supernatant. Secondary HRP-conjugated goat anti-rabbit IgG Fc antibody (Stratech Scientific Ltd/Jackson ImmunoResearch) was added to plates, followed by visualization of binding with TMB substrate (3,3′,5,5′-Tetramethylbenzidine, from EMD Millipore; 10 μl/well).
# [2] = biological target: T2, human beta synuclein (rPeptide) (human, UniProt Q16143 1-134); experiment: Western blot, 1 microgram synuclein
# T2 construct: also called rPeptide beta synuclein
# T2 sequence (Q16143 whole entry): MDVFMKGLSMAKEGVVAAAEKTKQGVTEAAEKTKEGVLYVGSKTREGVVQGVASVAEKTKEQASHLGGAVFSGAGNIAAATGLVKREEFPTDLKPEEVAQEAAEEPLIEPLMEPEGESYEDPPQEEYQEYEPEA
# Experimental: The binding of antibodies raised against human alpha synuclein to human beta synuclein were tested by Western blot using rPeptide beta synuclein. […] The membrane was blocked in PBS with 3% BSA and 0.1% Tween20. […] The blot was washed extensively in PBS with 0.1% Tween20, PBS and water. Chemi-luminescence was measured after addition of ECL Western blot substrate (Pierce).
binder,measurement,setting,value
B1,binding result,[1],no binding
same,binding result,[2],no binding
